Results published in patent publication US20260001928A1 (CORTERIA PHARMACEUTICALS, priority 2022, published 2026).
*1 amine or outer side, *2 acyl side, *3 side chain or, on linkers, in order; H or OH if unused. Where no end group is shown, it is not given here. Side-chain parts run from the residue outwards. [ ]: non-standard residue; d: D form. The star is where a group is joined. C18 diacid = O=C(O)CCCCCCCCCCCCCCCCC(=O)*; C16 diacid = O=C(O)CCCCCCCCCCCCCCC(=O)*; γGlu = O=C(O)[C@H](CCC(=O)[*:2])N[*:1]; NMeI = CC[C@H](C)[C@H](NC)C(=O)O; Isovaleryl = CC(C)CC(=O)*; Pentanoyl = CCCCC(=O)*; Aib = CC(C)(N)C(=O)O

T1: CRF1R receptor (UniProt P34998 24-415, limits assumed)
T1 sequence (looked up): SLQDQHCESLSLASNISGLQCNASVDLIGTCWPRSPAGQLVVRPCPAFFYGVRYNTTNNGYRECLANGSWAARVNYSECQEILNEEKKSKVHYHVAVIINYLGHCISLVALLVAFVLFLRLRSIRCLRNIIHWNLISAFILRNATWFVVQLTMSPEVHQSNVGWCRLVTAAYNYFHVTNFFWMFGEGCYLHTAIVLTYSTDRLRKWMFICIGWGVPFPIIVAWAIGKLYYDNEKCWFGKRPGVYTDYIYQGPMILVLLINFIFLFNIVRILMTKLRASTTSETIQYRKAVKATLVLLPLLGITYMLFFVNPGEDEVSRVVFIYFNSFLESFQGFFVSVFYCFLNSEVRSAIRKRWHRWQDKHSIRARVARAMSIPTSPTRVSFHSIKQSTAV


Experiments:
[1] = biological target: human corticotropin-releasing factor 2a (CRF2a receptor) (human), Q13324; experiment: cell-based or functional assay
[2] = biological target: T1, CRF1R receptor; experiment: cell-based or functional assay

human corticotropin-releasing factor 2a (CRF2a receptor) (human), Q13324, sequence (Q13324 20-411): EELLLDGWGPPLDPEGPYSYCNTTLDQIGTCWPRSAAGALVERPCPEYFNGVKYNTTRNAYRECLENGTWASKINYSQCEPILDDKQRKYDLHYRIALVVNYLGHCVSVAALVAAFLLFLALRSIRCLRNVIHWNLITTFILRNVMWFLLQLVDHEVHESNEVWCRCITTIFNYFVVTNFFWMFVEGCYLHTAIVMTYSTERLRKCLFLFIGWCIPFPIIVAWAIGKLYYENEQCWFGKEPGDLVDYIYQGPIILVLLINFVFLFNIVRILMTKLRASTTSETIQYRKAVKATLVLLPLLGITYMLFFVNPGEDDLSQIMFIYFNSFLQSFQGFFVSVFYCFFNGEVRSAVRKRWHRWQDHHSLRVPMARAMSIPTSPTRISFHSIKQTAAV

Binder	EC50 [nM] (cAMP) [1]	Emax (% I) [2] [%]	EC50 [2] [nM]
Ac-IVLSLD[dV]PIKLK([γGlu-C18 diacid])KILLEQEKQKAQREQAETN[Aib]QILAQV-NH2 (SMILES CC[C@H](C)[C@H](NC(C)=O)C(=O)N[C@H](C(=O)N[C@@H](CC(C)C)C(=O)N[C@@H](CO)C(=O)N[C@@H](CC(C)C)C(=O)N[C@@H](CC(=O)O)C(=O)N[C@@H](C(=O)N1CCC[C@H]1C(=O)N[C@H](C(=O)N[C@@H](CCCCN)C(=O)N[C@@H](CC(C)C)C(=O)N[C@@H](CCCCNC(=O)CC[C@H](NC(=O)CCCCCCCCCCCCCCCCC(=O)O)C(=O)O)C(=O)N[C@@H](CCCCN)C(=O)N[C@H](C(=O)N[C@@H](CC(C)C)C(=O)N[C@@H](CC(C)C)C(=O)N[C@@H](CCC(=O)O)C(=O)N[C@@H](CCC(N)=O)C(=O)N[C@@H](CCC(=O)O)C(=O)N[C@@H](CCCCN)C(=O)N[C@@H](CCC(N)=O)C(=O)N[C@@H](CCCCN)C(=O)N[C@@H](C)C(=O)N[C@@H](CCC(N)=O)C(=O)N[C@@H](CCCNC(=N)N)C(=O)N[C@@H](CCC(=O)O)C(=O)N[C@@H](CCC(N)=O)C(=O)N[C@@H](C)C(=O)N[C@@H](CCC(=O)O)C(=O)N[C@H](C(=O)N[C@@H](CC(N)=O)C(=O)NC(C)(C)C(=O)N[C@@H](CCC(N)=O)C(=O)N[C@H](C(=O)N[C@@H](CC(C)C)C(=O)N[C@@H](C)C(=O)N[C@@H](CCC(N)=O)C(=O)N[C@H](C(N)=O)C(C)C)[C@@H](C)CC)[C@@H](C)O)[C@@H](C)CC)[C@@H](C)CC)C(C)C)C(C)C) [SEQ ID NO 189]	0.29	9	
Ac-IVLSLD[dV]PIKLK([γGlu-C18 diacid])KILLEQEKQK[Aib]QREQAETN[Aib]QILAQV-NH2 (SMILES CC[C@H](C)[C@H](NC(C)=O)C(=O)N[C@H](C(=O)N[C@@H](CC(C)C)C(=O)N[C@@H](CO)C(=O)N[C@@H](CC(C)C)C(=O)N[C@@H](CC(=O)O)C(=O)N[C@@H](C(=O)N1CCC[C@H]1C(=O)N[C@H](C(=O)N[C@@H](CCCCN)C(=O)N[C@@H](CC(C)C)C(=O)N[C@@H](CCCCNC(=O)CC[C@H](NC(=O)CCCCCCCCCCCCCCCCC(=O)O)C(=O)O)C(=O)N[C@@H](CCCCN)C(=O)N[C@H](C(=O)N[C@@H](CC(C)C)C(=O)N[C@@H](CC(C)C)C(=O)N[C@@H](CCC(=O)O)C(=O)N[C@@H](CCC(N)=O)C(=O)N[C@@H](CCC(=O)O)C(=O)N[C@@H](CCCCN)C(=O)N[C@@H](CCC(N)=O)C(=O)N[C@@H](CCCCN)C(=O)NC(C)(C)C(=O)N[C@@H](CCC(N)=O)C(=O)N[C@@H](CCCNC(=N)N)C(=O)N[C@@H](CCC(=O)O)C(=O)N[C@@H](CCC(N)=O)C(=O)N[C@@H](C)C(=O)N[C@@H](CCC(=O)O)C(=O)N[C@H](C(=O)N[C@@H](CC(N)=O)C(=O)NC(C)(C)C(=O)N[C@@H](CCC(N)=O)C(=O)N[C@H](C(=O)N[C@@H](CC(C)C)C(=O)N[C@@H](C)C(=O)N[C@@H](CCC(N)=O)C(=O)N[C@H](C(N)=O)C(C)C)[C@@H](C)CC)[C@@H](C)O)[C@@H](C)CC)[C@@H](C)CC)C(C)C)C(C)C) [SEQ ID NO 190]	0.3	9	
Ac-IVLSLD[dV]PIGLK([γGlu-C18 diacid])KILLEQEKQKKQREQAETN[Aib]QILAQV-NH2 (SMILES CC[C@H](C)[C@H](NC(C)=O)C(=O)N[C@H](C(=O)N[C@@H](CC(C)C)C(=O)N[C@@H](CO)C(=O)N[C@@H](CC(C)C)C(=O)N[C@@H](CC(=O)O)C(=O)N[C@@H](C(=O)N1CCC[C@H]1C(=O)N[C@H](C(=O)NCC(=O)N[C@@H](CC(C)C)C(=O)N[C@@H](CCCCNC(=O)CC[C@H](NC(=O)CCCCCCCCCCCCCCCCC(=O)O)C(=O)O)C(=O)N[C@@H](CCCCN)C(=O)N[C@H](C(=O)N[C@@H](CC(C)C)C(=O)N[C@@H](CC(C)C)C(=O)N[C@@H](CCC(=O)O)C(=O)N[C@@H](CCC(N)=O)C(=O)N[C@@H](CCC(=O)O)C(=O)N[C@@H](CCCCN)C(=O)N[C@@H](CCC(N)=O)C(=O)N[C@@H](CCCCN)C(=O)N[C@@H](CCCCN)C(=O)N[C@@H](CCC(N)=O)C(=O)N[C@@H](CCCNC(=N)N)C(=O)N[C@@H](CCC(=O)O)C(=O)N[C@@H](CCC(N)=O)C(=O)N[C@@H](C)C(=O)N[C@@H](CCC(=O)O)C(=O)N[C@H](C(=O)N[C@@H](CC(N)=O)C(=O)NC(C)(C)C(=O)N[C@@H](CCC(N)=O)C(=O)N[C@H](C(=O)N[C@@H](CC(C)C)C(=O)N[C@@H](C)C(=O)N[C@@H](CCC(N)=O)C(=O)N[C@H](C(N)=O)C(C)C)[C@@H](C)CC)[C@@H](C)O)[C@@H](C)CC)[C@@H](C)CC)C(C)C)C(C)C) [SEQ ID NO 191]	0.18	54	92.9
[NMeI]VLSLD[dV]PIGLK([γGlu-C18 diacid])KILLEQEKQKKQREQAETN[Aib]QILAQV-NH2 (N-terminus assumed; SMILES CC[C@H](C)[C@H](NC)C(=O)N[C@H](C(=O)N[C@@H](CC(C)C)C(=O)N[C@@H](CO)C(=O)N[C@@H](CC(C)C)C(=O)N[C@@H](CC(=O)O)C(=O)N[C@@H](C(=O)N1CCC[C@H]1C(=O)N[C@H](C(=O)NCC(=O)N[C@@H](CC(C)C)C(=O)N[C@@H](CCCCNC(=O)CC[C@H](NC(=O)CCCCCCCCCCCCCCCCC(=O)O)C(=O)O)C(=O)N[C@@H](CCCCN)C(=O)N[C@H](C(=O)N[C@@H](CC(C)C)C(=O)N[C@@H](CC(C)C)C(=O)N[C@@H](CCC(=O)O)C(=O)N[C@@H](CCC(N)=O)C(=O)N[C@@H](CCC(=O)O)C(=O)N[C@@H](CCCCN)C(=O)N[C@@H](CCC(N)=O)C(=O)N[C@@H](CCCCN)C(=O)N[C@@H](CCCCN)C(=O)N[C@@H](CCC(N)=O)C(=O)N[C@@H](CCCNC(=N)N)C(=O)N[C@@H](CCC(=O)O)C(=O)N[C@@H](CCC(N)=O)C(=O)N[C@@H](C)C(=O)N[C@@H](CCC(=O)O)C(=O)N[C@H](C(=O)N[C@@H](CC(N)=O)C(=O)NC(C)(C)C(=O)N[C@@H](CCC(N)=O)C(=O)N[C@H](C(=O)N[C@@H](CC(C)C)C(=O)N[C@@H](C)C(=O)N[C@@H](CCC(N)=O)C(=O)N[C@H](C(N)=O)C(C)C)[C@@H](C)CC)[C@@H](C)O)[C@@H](C)CC)[C@@H](C)CC)C(C)C)C(C)C) [SEQ ID NO 192]	0.11	19	
Pentanoyl-VLSLD[dV]PIKLK([γGlu-C18 diacid])KILLEQEKQKKQREQAETN[Aib]QILAQV-NH2 (SMILES CCCCC(=O)N[C@H](C(=O)N[C@@H](CC(C)C)C(=O)N[C@@H](CO)C(=O)N[C@@H](CC(C)C)C(=O)N[C@@H](CC(=O)O)C(=O)N[C@@H](C(=O)N1CCC[C@H]1C(=O)N[C@H](C(=O)N[C@@H](CCCCN)C(=O)N[C@@H](CC(C)C)C(=O)N[C@@H](CCCCNC(=O)CC[C@H](NC(=O)CCCCCCCCCCCCCCCCC(=O)O)C(=O)O)C(=O)N[C@@H](CCCCN)C(=O)N[C@H](C(=O)N[C@@H](CC(C)C)C(=O)N[C@@H](CC(C)C)C(=O)N[C@@H](CCC(=O)O)C(=O)N[C@@H](CCC(N)=O)C(=O)N[C@@H](CCC(=O)O)C(=O)N[C@@H](CCCCN)C(=O)N[C@@H](CCC(N)=O)C(=O)N[C@@H](CCCCN)C(=O)N[C@@H](CCCCN)C(=O)N[C@@H](CCC(N)=O)C(=O)N[C@@H](CCCNC(=N)N)C(=O)N[C@@H](CCC(=O)O)C(=O)N[C@@H](CCC(N)=O)C(=O)N[C@@H](C)C(=O)N[C@@H](CCC(=O)O)C(=O)N[C@H](C(=O)N[C@@H](CC(N)=O)C(=O)NC(C)(C)C(=O)N[C@@H](CCC(N)=O)C(=O)N[C@H](C(=O)N[C@@H](CC(C)C)C(=O)N[C@@H](C)C(=O)N[C@@H](CCC(N)=O)C(=O)N[C@H](C(N)=O)C(C)C)[C@@H](C)CC)[C@@H](C)O)[C@@H](C)CC)[C@@H](C)CC)C(C)C)C(C)C) [SEQ ID NO 193]	0.17	20	
Isovaleryl-VLSLD[dV]PIKLK([γGlu-C16 diacid])QILLKQERQKKQREQAEKNKQILEQV-NH2 (SMILES CC[C@H](C)[C@H](NC(=O)[C@H](CCC(N)=O)NC(=O)[C@H](CCCCNC(=O)CC[C@H](NC(=O)CCCCCCCCCCCCCCC(=O)O)C(=O)O)NC(=O)[C@H](CC(C)C)NC(=O)[C@H](CCCCN)NC(=O)[C@@H](NC(=O)[C@@H]1CCCN1C(=O)[C@H](NC(=O)[C@H](CC(=O)O)NC(=O)[C@H](CC(C)C)NC(=O)[C@H](CO)NC(=O)[C@H](CC(C)C)NC(=O)[C@@H](NC(=O)CC(C)C)C(C)C)C(C)C)[C@@H](C)CC)C(=O)N[C@@H](CC(C)C)C(=O)N[C@@H](CC(C)C)C(=O)N[C@@H](CCCCN)C(=O)N[C@@H](CCC(N)=O)C(=O)N[C@@H](CCC(=O)O)C(=O)N[C@@H](CCCNC(=N)N)C(=O)N[C@@H](CCC(N)=O)C(=O)N[C@@H](CCCCN)C(=O)N[C@@H](CCCCN)C(=O)N[C@@H](CCC(N)=O)C(=O)N[C@@H](CCCNC(=N)N)C(=O)N[C@@H](CCC(=O)O)C(=O)N[C@@H](CCC(N)=O)C(=O)N[C@@H](C)C(=O)N[C@@H](CCC(=O)O)C(=O)N[C@@H](CCCCN)C(=O)N[C@@H](CC(N)=O)C(=O)N[C@@H](CCCCN)C(=O)N[C@@H](CCC(N)=O)C(=O)N[C@H](C(=O)N[C@@H](CC(C)C)C(=O)N[C@@H](CCC(=O)O)C(=O)N[C@@H](CCC(N)=O)C(=O)N[C@H](C(N)=O)C(C)C)[C@@H](C)CC) [SEQ ID NO 9]	0.16	77	28.2
